Experimental data: article doi:10.1101/2023.07.24.550339

Target: Rac1BD (MiniBAR70-208), recombinant (human) (UniProt O15063)
Experiment: SEC-MALS

stoichiometry N (Rac1 per Rac1BD homodimer): 2
Substance: Rac1Q61L, recombinant (from UniProt P63000 1-192) (natural protein)
